Assay results from patent US20220363757A1 (SYMPHOGEN A S, published 2022).

T1: human LAG-3 domain 1-2 Fc fusion, point mutation #55 S111A (human, UniProt P18627 23-266)
T1 construct: not shown: human IgG1 Fc, AA P101-K330
T1 sequence: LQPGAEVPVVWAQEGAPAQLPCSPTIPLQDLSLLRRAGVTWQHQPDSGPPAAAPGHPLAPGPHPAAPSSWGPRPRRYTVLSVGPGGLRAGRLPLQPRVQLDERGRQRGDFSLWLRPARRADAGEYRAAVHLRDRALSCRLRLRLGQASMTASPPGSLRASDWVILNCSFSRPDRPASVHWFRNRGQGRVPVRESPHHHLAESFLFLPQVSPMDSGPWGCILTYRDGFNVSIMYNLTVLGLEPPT

T2: human LAG-3 domain 1-2 Fc fusion, point mutation #17 Q66A (human, UniProt P18627 23-266)
T2 construct: not shown: human IgG1 Fc, AA P101-K330
T2 sequence: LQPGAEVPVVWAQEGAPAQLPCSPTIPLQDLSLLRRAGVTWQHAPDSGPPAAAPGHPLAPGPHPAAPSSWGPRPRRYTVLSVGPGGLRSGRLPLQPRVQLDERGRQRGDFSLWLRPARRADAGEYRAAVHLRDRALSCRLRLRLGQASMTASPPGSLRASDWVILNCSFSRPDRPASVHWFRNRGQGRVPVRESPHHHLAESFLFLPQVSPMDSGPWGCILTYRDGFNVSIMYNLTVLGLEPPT

T3: human LAG-3 domain 1-2 Fc fusion, point mutation #76 D143A (human, UniProt P18627 23-266)
T3 construct: not shown: human IgG1 Fc, AA P101-K330
T3 sequence: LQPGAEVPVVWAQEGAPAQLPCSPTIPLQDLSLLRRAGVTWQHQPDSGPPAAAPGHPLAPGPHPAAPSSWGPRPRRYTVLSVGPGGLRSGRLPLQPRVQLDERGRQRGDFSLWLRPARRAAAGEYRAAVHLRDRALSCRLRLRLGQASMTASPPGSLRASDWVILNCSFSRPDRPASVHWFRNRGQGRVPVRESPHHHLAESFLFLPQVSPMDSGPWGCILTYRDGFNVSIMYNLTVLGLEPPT

T4: human LAG-3 domain 1-2 Fc fusion, point mutation #63 D123A (human, UniProt P18627 23-266)
T4 construct: not shown: human IgG1 Fc, AA P101-K330
T4 sequence: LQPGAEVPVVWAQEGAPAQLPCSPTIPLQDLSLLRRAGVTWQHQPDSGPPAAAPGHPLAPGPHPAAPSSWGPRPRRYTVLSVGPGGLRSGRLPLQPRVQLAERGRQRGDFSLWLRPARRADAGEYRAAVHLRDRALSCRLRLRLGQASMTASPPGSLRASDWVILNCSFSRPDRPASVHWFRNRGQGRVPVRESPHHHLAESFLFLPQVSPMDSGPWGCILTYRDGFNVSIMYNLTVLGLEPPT

T5: human LAG-3 domain 1-2 Fc fusion, point mutation #48 V101A (human, UniProt P18627 23-266)
T5 construct: not shown: human IgG1 Fc, AA P101-K330
T5 sequence: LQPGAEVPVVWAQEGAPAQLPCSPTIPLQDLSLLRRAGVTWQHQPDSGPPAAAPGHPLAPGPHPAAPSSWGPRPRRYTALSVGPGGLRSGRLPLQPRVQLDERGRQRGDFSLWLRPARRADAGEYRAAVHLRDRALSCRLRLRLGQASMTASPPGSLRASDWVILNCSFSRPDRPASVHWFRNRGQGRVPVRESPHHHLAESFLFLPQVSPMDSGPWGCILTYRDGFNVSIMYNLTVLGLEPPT

T6: human LAG-3 domain 1-2 Fc fusion, point mutation #39 W92A (human, UniProt P18627 23-266)
T6 construct: not shown: human IgG1 Fc, AA P101-K330
T6 sequence: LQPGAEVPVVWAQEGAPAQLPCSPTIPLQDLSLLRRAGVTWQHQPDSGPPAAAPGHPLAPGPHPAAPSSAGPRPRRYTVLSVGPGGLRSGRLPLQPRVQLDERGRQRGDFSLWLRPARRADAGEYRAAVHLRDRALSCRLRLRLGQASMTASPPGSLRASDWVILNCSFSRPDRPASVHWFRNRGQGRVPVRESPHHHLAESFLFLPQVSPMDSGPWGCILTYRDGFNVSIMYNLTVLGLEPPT

T7: human LAG-3 domain 1-2 Fc fusion, point mutation #1 A40S (human, UniProt P18627 23-266)
T7 construct: not shown: human IgG1 Fc, AA P101-K330
T7 sequence: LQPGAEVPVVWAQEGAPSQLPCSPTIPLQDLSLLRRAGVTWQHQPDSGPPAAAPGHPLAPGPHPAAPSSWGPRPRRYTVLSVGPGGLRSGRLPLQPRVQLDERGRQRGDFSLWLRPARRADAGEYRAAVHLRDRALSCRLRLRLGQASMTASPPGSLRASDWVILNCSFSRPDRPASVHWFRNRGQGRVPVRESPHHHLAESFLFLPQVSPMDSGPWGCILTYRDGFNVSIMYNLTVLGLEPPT

T8: human LAG-3 domain 1-2 Fc fusion, point mutation #72 S133A (human, UniProt P18627 23-266)
T8 construct: not shown: human IgG1 Fc, AA P101-K330
T8 sequence: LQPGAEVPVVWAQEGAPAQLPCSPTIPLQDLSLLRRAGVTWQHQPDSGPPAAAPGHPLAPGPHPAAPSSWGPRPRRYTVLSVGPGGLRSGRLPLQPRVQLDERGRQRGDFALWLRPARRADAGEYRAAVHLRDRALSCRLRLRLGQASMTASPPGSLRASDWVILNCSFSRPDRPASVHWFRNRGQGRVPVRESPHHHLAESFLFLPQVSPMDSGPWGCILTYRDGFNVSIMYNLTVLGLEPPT

T9: human LAG-3 domain 1-2 Fc fusion, point mutation #35 A88S (human, UniProt P18627 23-266)
T9 construct: not shown: human IgG1 Fc, AA P101-K330
T9 sequence: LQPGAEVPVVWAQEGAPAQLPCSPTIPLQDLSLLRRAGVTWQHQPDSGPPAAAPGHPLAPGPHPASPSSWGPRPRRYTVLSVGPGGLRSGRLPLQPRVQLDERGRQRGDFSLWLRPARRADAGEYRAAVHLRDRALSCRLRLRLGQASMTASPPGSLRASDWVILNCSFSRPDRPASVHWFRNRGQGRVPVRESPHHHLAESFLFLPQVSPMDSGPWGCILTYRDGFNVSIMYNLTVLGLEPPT


Experiments:
Experiment in all cases: SPR, Fab over captured mutant LAG-3-Fc;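 also: fc fusion variants captured on anti-human IgG Fc sensor, Fab injected with association then dissociation phases, KD obtained from Langmuir one-to-one fit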
[1] = target: T1, human LAG-3 domain 1-2 Fc fusion, point …
[2] = target: T2, human LAG-3 domain 1-2 Fc fusion, point …
[3] = target: T3, human LAG-3 domain 1-2 Fc fusion, point …
[4] = target: T4, human LAG-3 domain 1-2 Fc fusion, point …
[5] = target: T5, human LAG-3 domain 1-2 Fc fusion, point …
[6] = target: T6, human LAG-3 domain 1-2 Fc fusion, point …
[7] = target: T7, human LAG-3 domain 1-2 Fc fusion, point …
[8] = target: T8, human LAG-3 domain 1-2 Fc fusion, point …
[9] = target: T9, human LAG-3 domain 1-2 Fc fusion, point …

| Binder | KD mutant/KD wild type [1] | binding result [2] | binding result [3] | KD mutant/KD wild type [4] | binding result [5] | KD mutant/KD wild type [6] | binding result [7] | binding result [8] | KD mutant/KD wild type [9] | KD mutant/KD wild type [2] | KD mutant/KD wild type [3] | KD mutant/KD wild type [5] | KD mutant/KD wild type [7] | KD mutant/KD wild type [8] | binding result [6] |
| --- | --- | --- | --- | --- | --- | --- | --- | --- | --- | --- | --- | --- | --- | --- | --- |
| Fab fragment of antibody 15532 (Fab, V domains shown, not shown: a dimerising Fc or GST, monomeric Fab made by GingisKHAN digestion of the IgG1) VH: QVQLQQWGAGLLRPSETLSLTCAVYGESFSGYYWNWIRQPPGKGLEWIGEINHSGSTNYNPSLKSRVTISVDTSKTQFSLKLSSVTAADTAVYYCARGWDLLDWNDYWNEYWGQGTLVTVSS VL: EIVLTQSPATLSLSPGERATLSCRASQSVSSYLAWYQQKPGQAPRLLIYDASNRATGIPARFSGSGSGTDFTLTISSLEPEDFAVYYCQQRSNWPLTFGGGTKVEIKR | 1 fold | – | – | 1 fold | – | – | – | – | 3.7 fold | 2.7 fold | 3.8 fold | 3.5 fold | 4.4 fold | 2.2 fold | no binding (tested: 300 nM) |
| Fab fragment of antibody 15431 (Fab, V domains shown, not shown: a dimerising Fc or GST, monomeric Fab made by GingisKHAN digestion of the IgG1) VH: QVQLQQSGPGLVKPSQTLSLTCAISGDSVSSNSAAWNWIRQSPSRGLEWLGRTYYRSKWYNDYAVSVKSRITINPDTSKNQFSLQLNSVTPEDTAVYYCARDDDWNDFDYWGQGTLVTVSS VL: EIVLTQSPATLSLSPGERATLSCRASQSVSSYLAWYQQKPGQAPRLLIYDASNRATGIPARFSGSGSGTDFTLTISSLEPEDFAVYYCQQRSNWPLTFGGGTKVEIKR | 0.8 fold | no binding (tested: 300 nM) | no binding (tested: 300 nM) | 0.9 fold | no binding (tested: 300 nM) | 3.6 fold | no binding (tested: 300 nM) | no binding (tested: 300 nM) | 0.6 fold | – | – | – | – | – | – |

Now from value to binder:

| KD mutant/KD wild type [1] | binding result [2] | binding result [3] | KD mutant/KD wild type [4] | binding result [5] | KD mutant/KD wild type [6] | binding result [7] | binding result [8] | KD mutant/KD wild type [9] | KD mutant/KD wild type [2] | KD mutant/KD wild type [3] | KD mutant/KD wild type [5] | KD mutant/KD wild type [7] | KD mutant/KD wild type [8] | binding result [6] | Binder |
| --- | --- | --- | --- | --- | --- | --- | --- | --- | --- | --- | --- | --- | --- | --- | --- |
| 0.7 fold | no binding (tested: 300 nM) | no binding (tested: 300 nM) | 0.5 fold | no binding (tested: 300 nM) | 1 fold | no binding (tested: 300 nM) | no binding (tested: 300 nM) | 0.6 fold | – | – | – | – | – | – | Fab fragment of antibody 15572 (Fab, V domains shown, not shown: a dimerising Fc or GST, monomeric Fab made by GingisKHAN digestion of the IgG1) VH: QLQLQESGPGLVKPSETLSLTCTVSGDSISSSSYYWGWIRQPPGKGLEWIGSIFYSGNTYYNPSLKSRVTISVDTSKNQFSLKLSSVTAADTAVYYCAREDDFLTDYYGAFDIWGQGTMVTVSS VL: not shown |
| 53.4 fold | – | – | 0.8 fold | – | 1.1 fold | – | – | 0.9 fold | 0.7 fold | 0.5 fold | 0.5 fold | 0.6 fold | 0.6 fold | – | Fab fragment of antibody 15011 (Fab, V domains shown, not shown: a dimerising Fc or GST, monomeric Fab made by GingisKHAN digestion of the IgG1) VH: EVQLLESGGGLVQPGGSLRLSCAASGFDFRSYAMMWVRQAPGKGLEWVGGINGEVGGSNTYYAPAVKGRATISRDNSKNTLYLQMNSLRAEDTAVYYCVKGAGACGICNDDIDAWGQGTLVTVSS VL: SYELTQDPAVSVALGQTVRITCSGAGSYAGSYYYGWHQQKPGQAPVTVIYDNDKRPSNIPDRFSGSSSGNTASLTITGAQAEDEADYYCGSTNDNDDGGLFGSGTKVTVLG |
